According to the supplement of paper PMC9112550, “Optimization of the antimicrobial peptide Bac7 by deep mutational scanning” (BMC Biology, 2022):

Tested on: Escherichia coli TOP10
Experiment: shrunken log2 fold change of peptide-encoding DNA abundance (4.5 h post-induction vs induction); higher = less antimicrobial activity (less host growth inhibition)
Conditions: time post-induction: 4.5 h; library: site-saturation at positions 5, 18, 19, 20
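Note: peptides expressed intracellularly from a pBAD plasmid library in pooled LB shake-flask culture, induced with 0.3% L-arabinose, DNA abundance read by NGS, three biological replicates, DESeq2 with apeglm shrinkage.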

Row | Sequence | shrunken log2 fold change
1 | RRIRMRPPRLPRPRPRPGWSPRP | 0.548
2 | RRIRKRPPRLPRPRPRPGKNPRP | -0.181
3 | RRIRARPPRLPRPRPRPRVKPRP | 0.488
4 | RRIRRRPPRLPRPRPRPTRWPRP | 0.799
5 | RRIRRRPPRLPRPRPRPDYCPRP | -0.214
6 | RRIRGRPPRLPRPRPRPSMAPRP | 0.749
7 | RRIRARPPRLPRPRPRPSGVPRP | -0.136
8 | RRIRDRPPRLPRPRPRPMIAPRP | 0.732
9 | RRIRPRPPRLPRPRPRPCHTPRP | -0.498
10 | RRIRYRPPRLPRPRPRPSILPRP | -1.25
11 | RRIRIRPPRLPRPRPRPAQGPRP | 0.168
12 | RRIRFRPPRLPRPRPRPDECPRP | -0.399
13 | RRIRYRPPRLPRPRPRPWRSPRP | 0.175
14 | RRIRYRPPRLPRPRPRPMRPPRP | 0.512
15 | RRIRARPPRLPRPRPRPVQEPRP | 0.509
16 | RRIRPRPPRLPRPRPRPWSEPRP | -0.0275
17 | RRIRYRPPRLPRPRPRPQMRPRP | -0.00174
18 | RRIRQRPPRLPRPRPRPKAAPRP | -0.0496
19 | RRIRKRPPRLPRPRPRPPMMPRP | 0.587
20 | RRIRMRPPRLPRPRPRPRCRPRP | 0.619
21 | RRIRHRPPRLPRPRPRPKGFPRP | 0.0595
22 | RRIRVRPPRLPRPRPRPQMLPRP | -0.158
23 | RRIRDRPPRLPRPRPRPAHAPRP | 0.0741
24 | RRIRNRPPRLPRPRPRPRGYPRP | -0.846
25 | RRIRARPPRLPRPRPRPLCWPRP | 0.43

Row | Sequence | shrunken log2 fold change
26 | RRIRARPPRLPRPRPRPMDQPRP | -0.194
27 | RRIRSRPPRLPRPRPRPYLKPRP | -0.0359
28 | RRIRVRPPRLPRPRPRPAETPRP | 0.344
29 | RRIRIRPPRLPRPRPRPVPTPRP | 0.0576
30 | RRIRQRPPRLPRPRPRPCAIPRP | -0.0067
31 | RRIRGRPPRLPRPRPRPPNLPRP | 0.463
32 | RRIRIRPPRLPRPRPRPCTFPRP | -0.212
33 | RRIRKRPPRLPRPRPRPTCEPRP | 0.793
34 | RRIRKRPPRLPRPRPRPCNTPRP | -0.113
35 | RRIRARPPRLPRPRPRPCGNPRP | 0.0115
36 | RRIRARPPRLPRPRPRPCMLPRP | -0.0396
37 | RRIRTRPPRLPRPRPRPTDTPRP | -0.0527
38 | RRIRLRPPRLPRPRPRPQYKPRP | -1.05
39 | RRIRCRPPRLPRPRPRPKFLPRP | -0.258
40 | RRIRMRPPRLPRPRPRPTNKPRP | 0.111
41 | RRIRERPPRLPRPRPRPRDVPRP | 0.0772
42 | RRIRARPPRLPRPRPRPQDHPRP | -0.208
43 | RRIRRRPPRLPRPRPRPACTPRP | 0.181
44 | RRIRARPPRLPRPRPRPLITPRP | 0.305
45 | RRIRMRPPRLPRPRPRPDWIPRP | -0.017
46 | RRIRRRPPRLPRPRPRPDMKPRP | -0.124
47 | RRIRIRPPRLPRPRPRPISLPRP | -0.129
48 | RRIRLRPPRLPRPRPRPDKYPRP | -0.769
49 | RRIRNRPPRLPRPRPRPHDPPRP | -0.202
50 | RRIRLRPPRLPRPRPRPASDPRP | -0.19

Row | Sequence | shrunken log2 fold change
51 | RRIRARPPRLPRPRPRPGHEPRP | 0.054
52 | RRIRRRPPRLPRPRPRPGTKPRP | 0.0056
53 | RRIRGRPPRLPRPRPRPNQEPRP | 0.389
54 | RRIRKRPPRLPRPRPRPVDDPRP | 0.508
55 | RRIRFRPPRLPRPRPRPGFSPRP | -0.407
56 | RRIRARPPRLPRPRPRPIGLPRP | 0.076
57 | RRIRCRPPRLPRPRPRPRVKPRP | 0.196
58 | RRIRMRPPRLPRPRPRPYCHPRP | -0.545
59 | RRIRNRPPRLPRPRPRPGWYPRP | -0.273
60 | RRIRCRPPRLPRPRPRPLAMPRP | 0.062
61 | RRIRIRPPRLPRPRPRPLPRPRP | 0.2
62 | RRIRWRPPRLPRPRPRPCMHPRP | -0.0533
63 | RRIRVRPPRLPRPRPRPVFWPRP | 0.378
64 | RRIRMRPPRLPRPRPRPLTSPRP | 0.0851
65 | RRIRYRPPRLPRPRPRPLSRPRP | -0.155
66 | RRIRCRPPRLPRPRPRPPCPPRP | 0.487
67 | RRIRYRPPRLPRPRPRPQHPPRP | -0.595
68 | RRIRCRPPRLPRPRPRPVMFPRP | -0.154
69 | RRIRNRPPRLPRPRPRPTNYPRP | -0.73
70 | RRIRERPPRLPRPRPRPFKFPRP | -0.0774
71 | RRIRLRPPRLPRPRPRPRNNPRP | 0.019
72 | RRIRLRPPRLPRPRPRPYCHPRP | -0.542
73 | RRIRGRPPRLPRPRPRPKNNPRP | 0.198
74 | RRIRFRPPRLPRPRPRPECQPRP | -0.0729
75 | RRIRMRPPRLPRPRPRPVCDPRP | 0.367

Row | Sequence | shrunken log2 fold change
76 | RRIRYRPPRLPRPRPRPRCMPRP | -0.425
77 | RRIRIRPPRLPRPRPRPLKQPRP | 0.0465
78 | RRIRPRPPRLPRPRPRPPFEPRP | 0.596
79 | RRIRDRPPRLPRPRPRPDVGPRP | 0.232
80 | RRIRHRPPRLPRPRPRPKKYPRP | -0.806
81 | RRIRLRPPRLPRPRPRPQKVPRP | 0.0989
82 | RRIRYRPPRLPRPRPRPDYNPRP | -0.475
83 | RRIRKRPPRLPRPRPRPWLVPRP | 0.177
84 | RRIRERPPRLPRPRPRPRVWPRP | 0.387
85 | RRIRGRPPRLPRPRPRPNFYPRP | 0.22
86 | RRIRNRPPRLPRPRPRPKTMPRP | 0.177
87 | RRIRQRPPRLPRPRPRPFHSPRP | -0.00884
88 | RRIRNRPPRLPRPRPRPKQDPRP | -0.0415
89 | RRIRNRPPRLPRPRPRPLESPRP | -0.0331
90 | RRIRPRPPRLPRPRPRPIVFPRP | -0.293
91 | RRIRKRPPRLPRPRPRPLQRPRP | 0.331
92 | RRIRDRPPRLPRPRPRPYSLPRP | -0.017
93 | RRIRTRPPRLPRPRPRPDHHPRP | -0.474
94 | RRIRQRPPRLPRPRPRPESNPRP | -0.257
95 | RRIRWRPPRLPRPRPRPDAQPRP | 1.48
96 | RRIRIRPPRLPRPRPRPLPEPRP | 0.0361
97 | RRIRERPPRLPRPRPRPLVLPRP | -0.333
98 | RRIRARPPRLPRPRPRPQSIPRP | -0.0868
99 | RRIRMRPPRLPRPRPRPPSQPRP | 1.18
100 | RRIRPRPPRLPRPRPRPTIHPRP | -0.428

Row | Sequence | shrunken log2 fold change
101 | RRIRERPPRLPRPRPRPYNFPRP | -0.254
102 | RRIRYRPPRLPRPRPRPMVNPRP | -0.0376
103 | RRIRNRPPRLPRPRPRPIQTPRP | -0.0112
104 | RRIRYRPPRLPRPRPRPRPTPRP | 0.363
105 | RRIRGRPPRLPRPRPRPQKDPRP | 0.346
106 | RRIRPRPPRLPRPRPRPLGNPRP | -0.173
107 | RRIRQRPPRLPRPRPRPWIWPRP | 0.231
108 | RRIRERPPRLPRPRPRPKEMPRP | -0.192
109 | RRIRKRPPRLPRPRPRPYGQPRP | -0.306
110 | RRIRRRPPRLPRPRPRPVFFPRP | 0.255
111 | RRIRKRPPRLPRPRPRPMEGPRP | -0.01
112 | RRIRLRPPRLPRPRPRPALDPRP | 0.396
113 | RRIRIRPPRLPRPRPRPCIRPRP | -0.0379
114 | RRIRERPPRLPRPRPRPFWCPRP | -0.014
115 | RRIRIRPPRLPRPRPRPDANPRP | 0.219
116 | RRIRYRPPRLPRPRPRPGTYPRP | -0.0385
117 | RRIRRRPPRLPRPRPRPHLDPRP | 0.176
118 | RRIRTRPPRLPRPRPRPAHMPRP | -0.0928
119 | RRIRLRPPRLPRPRPRPEAKPRP | 0.0204
120 | RRIRGRPPRLPRPRPRPVPQPRP | 0.618
121 | RRIRARPPRLPRPRPRPDKFPRP | -0.19
122 | RRIRMRPPRLPRPRPRPYISPRP | -0.353
123 | RRIRHRPPRLPRPRPRPHQYPRP | -0.52
124 | RRIRTRPPRLPRPRPRPAGDPRP | 0.258
125 | RRIRIRPPRLPRPRPRPQTAPRP | 0.101
